In PMC5469197, “ANGUSTIFOLIA, a Plant Homolog of CtBP/BARS Localizes to Stress Granules and Regulates Their Formation” (Frontiers in Plant Science, 2017):

Target: PROTEIN KINASE SU… PROTEIN (AIK1), Prot-A fusion (Arabidopsis thaliana)
Assay: co-IP; LUMIER in HEK293TN cells: Prot-A fusion co-transfected with Renilla luciferase fusion (AN always the luciferase fusion with the interactors); luciferase activity before (input) and after pulldown; percentage pulldown = pulldown/input x 100; empty vectors as negative control; positive if more than two times the background

Sequence of PROTEIN KINASE SU… PROTEIN (AIK1), Prot-A fusion (Arabidopsis thaliana) (main, as listed by the source): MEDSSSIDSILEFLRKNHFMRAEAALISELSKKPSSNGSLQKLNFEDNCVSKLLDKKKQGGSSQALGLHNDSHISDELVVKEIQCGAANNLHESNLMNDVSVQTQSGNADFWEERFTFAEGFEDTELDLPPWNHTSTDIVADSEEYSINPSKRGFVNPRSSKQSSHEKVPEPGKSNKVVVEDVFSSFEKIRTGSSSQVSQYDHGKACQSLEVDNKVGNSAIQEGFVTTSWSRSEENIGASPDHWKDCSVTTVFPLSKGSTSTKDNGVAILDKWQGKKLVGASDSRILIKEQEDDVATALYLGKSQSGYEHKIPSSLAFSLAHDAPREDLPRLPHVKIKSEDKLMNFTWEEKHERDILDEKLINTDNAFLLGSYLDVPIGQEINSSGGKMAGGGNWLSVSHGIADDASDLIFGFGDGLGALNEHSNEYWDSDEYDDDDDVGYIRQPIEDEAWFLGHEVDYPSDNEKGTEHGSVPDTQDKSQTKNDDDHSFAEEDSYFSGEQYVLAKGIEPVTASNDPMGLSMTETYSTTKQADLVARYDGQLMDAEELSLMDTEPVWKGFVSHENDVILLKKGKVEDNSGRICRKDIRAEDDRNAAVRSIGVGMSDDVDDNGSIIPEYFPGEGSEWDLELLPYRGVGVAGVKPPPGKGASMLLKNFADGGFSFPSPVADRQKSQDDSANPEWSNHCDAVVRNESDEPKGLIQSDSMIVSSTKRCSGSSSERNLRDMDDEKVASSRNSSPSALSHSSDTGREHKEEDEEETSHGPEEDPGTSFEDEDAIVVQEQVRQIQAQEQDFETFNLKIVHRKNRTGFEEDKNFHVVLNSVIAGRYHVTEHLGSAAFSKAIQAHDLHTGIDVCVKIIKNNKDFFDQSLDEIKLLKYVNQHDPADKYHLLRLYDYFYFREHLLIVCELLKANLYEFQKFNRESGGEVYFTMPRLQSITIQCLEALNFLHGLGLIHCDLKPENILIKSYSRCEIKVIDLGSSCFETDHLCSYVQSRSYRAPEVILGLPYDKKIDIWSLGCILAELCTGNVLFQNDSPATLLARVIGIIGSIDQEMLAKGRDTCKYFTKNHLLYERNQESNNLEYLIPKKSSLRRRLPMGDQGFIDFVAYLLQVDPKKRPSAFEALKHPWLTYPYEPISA

interaction as percent of wild-type AN (% of wild-type AN): 1.6
B1: AN^DOQ, Renilla luciferase fusion (LUMIER) (natural protein)
chain: MSKIRSSATMPHRDQPSPASPHVVTLNCIEDCALEQDSLAGVAGVEYVPLSRIADGKIESATAVLLHSLAYLPRAAQRRLRPHQLILCLGSADRAVDSTLAADLGLRLVHVDTSRAEEIADTVMALILGLLRRTHLLSRHALSASGWLGSLQPLCRGMRRCRGMVLGIVDRSVSARYLASRSLAFKMSVLYFDVPEGDEERIRPSRFPRAARRMDTLNDLLAASDVISLHCALTNDTVQILNAECLQHIKPGAFLVNTGSCQLLDDCAVKQLLIDGTIAGCALDGAEGPQWMEAWVKEMPNVLILPRSADYSEEVWMEIREKAISILHSFFLDGVIPSNTVSDEEVEESEASEEEEQSPSKHEKLAIVESTSRQQGESTLTSTEIVRREASELKESLSPGQQHVSQNTAVKPEGRRSRSGKKAKKRHSQQKYMQKTDGSSGLNEESTSRRDDIAMSDTEEVLSSSSRCASPEDSRSRKTPLEVMQESSPNQLVMSSKKFIGKSSELLKDGYVVALYAKDLSGLHVSRQRTKNGGWFLDTLSNVSKRDPAAQFIIAYRNKDTVGLRSFAAGGKLLQINRRMEFVFASHSFDVWESWSLEGSLDECRLVNCRNSSAVLDVRVEILAMVGDDGITRWID
